One experiment has as its target 新型冠状病毒(假病毒) S蛋白 (SARS-CoV-2, UniProt P0DTC2 14-1273). Briefly: cell-based or functional assay.
Another experiment deals with T1, 新型冠状病毒RBD蛋白 (野生型) (SARS-CoV-2, UniProt P0DTC2 319-541).
T1 construct: domain: RBD; also called WT; 新冠病毒RBD蛋白野生型
Briefly: SPR (Biacore), 1:1 binding fit.

B1: 人源化新冠病毒中和性抗体nCoV-00D (antibody, V domains shown)
VH: QVQLQQSGAELVKPGASVKLSCKTSGYTFTRYYIYWVKQRPGQGLEWIGEINPNNGGTNFNEKFKSKATLTVDKSSNTAYMQLSSLTSEDSAVYYCTIFITTVIARDYWGQGTLVTVSA
VL: DIVLTQSPASLAVSLGQRATISCRASESVEYSGTTLMQWFQQKPGQPPKLLIYAASNVESGVPARFSGSGSGTDFSLNIHPVEEDDVAMYFCHQSREVPWTFGGGTKLEIKR
notes: also called nCoV-00D抗体
With B1, the “IC50, 假病毒中和试验 (Huh7细胞, 荧光素酶值)” value in the experiment with 新型冠状病毒(假病毒) S蛋白 was around 9 ng/mL. Besides, in the experiment with 新型冠状病毒RBD蛋白 (野生型), the Kd was found to be 0.532 nM, the koff was 0.000133 s⁻¹ and the kon came out at 251000 M⁻¹ s⁻¹.

By Kd is commonly meant a measure of binding affinity in units of concentration. A lower Kd goes with a tighter complex. As usually defined, the koff is the rate constant with which the complex falls apart. Read a low koff as slow dissociation. By kon is commonly meant the rate constant with which the complex forms.

Source of the values: CN113461812A (BEIJING LUFEI BIOTECHNOLOGY CO LTD, dated 2021).
